Test results published in US20030162734.

Tests used:
[1] = molecular target: DENN-JBD (JNK binding domain region of DENN lacking the NLS and DD regions, fused to the C-terminus of EGFP) (UniProt Q8WXG6)
[2] = molecular target: GFP-DENN (full length DENN/MADD fused to the C-terminus of EGFP) (UniProt Q8WXG6)

## JNK (c-Jun N-terminal kinase), endogenous in NSC19 cells; p54 and p46 isoforms of phosphorylated JNK
[1]
  p54 band of phosphorylated JNK on Western immunoblot, NSC19 clones, 24 h Aβ exposure: DENN and DENN-JBD affected 3 to 4-fold increase in the p54 band with Aβ exposure
  phosphorylated c-Jun (Ser73) on immunoblot, NSC19 clones: Expression of ΔMEKK1, DENN, DENN-CT and DENN-JBD showed sustained levels of phosphorylated c-Jun
[2]
  p54 band of phosphorylated JNK on Western immunoblot, NSC19 clones, 24 h Aβ exposure: DENN and DENN-JBD affected 3 to 4-fold increase in the p54 band with Aβ exposure
